In PMC7523096 (bioRxiv, 2020):

Assays:
Experiment in all cases: BLI
[1] = biological target: SARS-CoV-2 receptor-binding domain-RBD (residue 320-527) (SARS-CoV-2, Wuhan-Hu-1 (MN908947), UniProt P0DTC2)
[2] = biological target: SARS-CoV-2 N-terminal domain-NTD (residue 1-290) (SARS-CoV-2, Wuhan-Hu-1 (MN908947), UniProt P0DTC2)
[3] = biological target: SARS-CoV-2 RBD-SD1 (residue 320-591) (SARS-CoV-2, Wuhan-Hu-1 (MN908947), UniProt P0DTC2)
[4] = biological target: SARS-CoV-2 RBD-SD1-2 (residue 320-681) (SARS-CoV-2, Wuhan-Hu-1 (MN908947), UniProt P0DTC2)

Measured: binding result

B1: CC9.3 mAb (IgG) (antibody, V domains shown)
VH: QVQLQESGPGLVKPSETLSLTCTVSGGSIRSDFWSWIRQFPGKGLEWIGYIYYSGSTNYNPSLESRVTISVDTSKNEFSLKLNYVTAADTAIYYCARETRWNWLDSWGQGTLVTVSS
VL: DIVMTQSPDSLAVSLGERASINCKSSQTISYISNNKNYLAWYQQKPGQPPRLLIYWASTRESGVPDRFSGGGFGTDFTLTISSLQAEDVAVYYCQQYFNTPWTFGQGTKVEIK
no binding: all assays above

B2: CC9.1 mAb (antibody, V domains shown)
VH: EVQLVESGGGLVQPGRSLRLSCVAPGFTLGGYGMHWVRQAPGKGLEWVGLISYDGSVQKYGSSVKGRFTISKDNSKNTLYLEMNSLRADDTAVYFCVKGASLGDNWGQGTLVTVSS
VL: EIVMTQSPLSLPVTLGQPASISCRSSQSLVYSDGDTYMSWFHQRPGQSPRRLIYKVSNRDSGVPDRFSGSGSGTDFTLKISRVEAEDVGVYYCMQGTHWPYTFGPGTKVEIK
no binding: all assays above

B3: CC9.2 mAb (IgG) (antibody, V domains shown)
VH: EVQLVESGGGLVQPGRSLRLSCVAPGFTLGGYGMHWVRQAPGKGLEWVGLISYDGSVQKYGSSVKGRFTISKDNSKNTLYLEMNSLRADDTAVYFCVKGASLGDNWGQGTLVTVSS
VL: EIVMTQSPLSLPVTLGQPASISCRSSQSLVYSDGDTYMSWFHQRPGQSPRRLIYKVSNRDFGVPDRFSGSGSGTDFTLKISRVEAEDVGVYYCMQGTHWPYTFGPGTKVEIK
no binding: all assays above

B4: second SARS-CoV-2/HCoV-HKU1 cross-reactive mAb from the CC40 donor (other than CC40.8; name not printed in the text) (antibody, V domains shown)
VH: EVQLVESGGGVVQPGRSLRLSCVASGFTFSNYGMHWVRQAPGKGLEWVAVMSYDGSVTYYGDSVRGRFTISRDNSKNTLYLQMSSLRTDDTGVYYCAKGQPLDDIWGLGTLVTVSS
VL: EIVMTQSPLSLPVSLGQSASISCRSSQSLVHTDGITYLSWFQQRPGQSPRRLLYKVSNRDSGVPDRFSGSGSGTDFTLKISRVEAEDVGVYYCLQGTYWPWTFGQGTKVEIK
no binding: all assays above

B5: CC40.8 mAb (IgG) (antibody, V domains shown)
VH: EVQLLESGGGLVQPGGSLRLSCAASGFTFSSYVMTWARQAPGKGLEWVSAISGTGYTYYADSVKGRFTVSRDNSKNTLFLQMSSLRAEDTAVYYCAITMAPVVWGQGTTVTVSS
VL: SYELTQPPSVSVSPGQTARITCSGDALPKRYAYWYQQKSGQAPILVIYEDKKRPSGIPERLSGSKSGTVATLTISGAQVEDEADYYCYSTDSSGNHAVFGGGTQLTVL
no binding: all assays above
